Assay results reported in PMC10939073, “The major inducible small heat shock protein HSP20-3 in the tardigrade Ramazzottius varieornatus forms filament-like structures and is an active chaperone” (Cell Stress & Chaperones, 2023).

B1: Ramazzottius varieornatus small heat shock protein HSP20-3 (natural protein, UniProt A0A1D1UZ79 1-218, looked up)
chain: MSMQRYDDYNDYGNRQMRPHRGNYEMEPFFGGNLFGGIDHVMRSMTRDLARMEKHIFGSSDTPNIGSLINHNMAMVPNFIERDGQQLAQFQLDVRGFKPEDITIRTSENVMTVTARHEDKSDDHHAIREFRRMVTIPPGMQMEGMKSRLTPNGVLSIEAPFTPQANRQGDFYEIPIQHGSSSNRNSIQNSGQNSSQNTNQNTNQNTNQNTNQNTNQNK
notes: a stop codon precedes the vector's C-terminal hexa-histidine tag, so the protein is untagged; pET23b construct; also called full length HSP20–3; RvY_03967; source: E. coli BL21 (pLysS), purified (Q-Sepharose ion exchange, Superose 6 size exclusion)
B2: HSP20-3NCT, C-terminally truncated HSP20-3 (stop codon immediately after G191, repeated QNTN-motif removed) (domain or fragment, Ramazzottius varieornatus, UniProt A0A1D1UZ79 1-191, looked up)
chain: MSMQRYDDYNDYGNRQMRPHRGNYEMEPFFGGNLFGGIDHVMRSMTRDLARMEKHIFGSSDTPNIGSLINHNMAMVPNFIERDGQQLAQFQLDVRGFKPEDITIRTSENVMTVTARHEDKSDDHHAIREFRRMVTIPPGMQMEGMKSRLTPNGVLSIEAPFTPQANRQGDFYEIPIQHGSSSNRNSIQNSG
notes: untagged; same forward primer as HSP20-3; pET23b construct; also called CTD-truncated HSP20–3; source: E. coli BL21 (pLysS), purified (Q-Sepharose ion exchange, Superose 6 size exclusion)
B3: human CRYAB (HSPB5) (natural protein, UniProt P02511 1-175, looked up)
chain: MDIAIHHPWIRRPFFPFHSPSRLFDQFFGEHLLESDLFPTSTSLSPFYLRPPSFLRAPSWFDTGLSEMRLEKDRFSVNLDVKHFSPEELKVKVLGDVIEVHGKHEERQDEHGFISREFHRKYRIPADVDPLTITSSLSSDGVLTVNGPRKQVSGPERTIPITREEKPAVTAAPKK
notes: human alpha-B crystallin CRYAB (HSPB5), recombinant; also called recombinant human CRYAB; source: E. coli, purified (ion exchange and size exclusion chromatography; as described previously)
B4: Ramazzottius varieornatus small heat shock protein HSP20-6 (natural protein, UniProt A0A1D1VFU2 1-195, looked up)
chain: MSRNLARLLPQITNMLDTPFRRAVTPFNRYRWPASSLGFFDREFERMSNMMDRMHNDLWHSSSLLENPQGSQRGKMNQDLFNIVEENGKKKMRIIFEAERCKPEDIEIKAKGNHLEIKARTEEKGEHFQSIQEYSQYLTLPEGVKAEELTCQFEGGMVTLEAPYTPPAIEAPKDIPVQKEPAEPPVKHNIPIKHE
notes: a stop codon precedes the vector's C-terminal hexa-histidine tag, so the protein is untagged; pET23b construct; also called RvY_08665; source: E. coli BL21 (pLysS), purified (Q-Sepharose ion exchange, Superose 6 size exclusion)

Target: the molecule itself
Assay: SEC; Superose 6 10/300 column; eluted in 0.5 M NaH2PO4, 0.5 M Na2HPO4, 150 mM NaCl, 5 mM EDTA pH 8.0; calibrated with protein standards (670 kDa to 137 Da); self-association, oligomers

Binding result, binds:
B1, B2, B3, B4
